Legend:
[1] = target: CH0505_CON D7gp120/293i; assay: ELISA
[2] = target: CH505.w30.12D8gp120; assay: ELISA
[3] = target: CH505w020.14D8gp120; assay: ELISA
[4] = target: CH505w030.20D8gp120/293F; assay: ELISA
[5] = target: HIV-1 CH505 transmitted/founder gp120 Env (HIV-1); assay: competition ELISA, blocking of CH106 binding to CH505 TF gp120 (self)
[6] = target: HIV-1 CH505 transmitted/founder gp120 Env (HIV-1); assay: competition ELISA; competitor biotinylated CH240 on CH505 TF gp120
[7] = target: CH505w136.B4D8gp120 (HIV-1); assay: direct-binding ELISA
[8] = target: CH505.TF mutant gp120 M8 (HIV-1); assay: direct-binding ELISA
[9] = target: CH505_w137V201B12.D11gp120 (HIV-1); assay: direct-binding ELISA
[10] = target: CH505w136.B18D8gp120 (HIV-1); assay: direct-binding ELISA
[11] = target: CH505.M7D8gp120/293F; assay: direct-binding ELISA
[12] = target: CH505w136.B8D8gp120 (HIV-1); assay: direct-binding ELISA
[13] = target: CH505w160.T4D8gp120/293F (HIV-1); assay: direct-binding ELISA
[14] = target: CH505.M19D8gp120; assay: direct-binding ELISA
[15] = target: CH505.M21D8gp120/293F; assay: direct-binding ELISA
[16] = target: CH505w136.B3D8gp120/293F (HIV-1); assay: direct-binding ELISA
[17] = target: CH505w160.C12D8gp120 (HIV-1); assay: direct-binding ELISA
[18] = target: CH505w160.A1D8gp120 (HIV-1); assay: direct-binding ELISA
[19] = target: CH505w136.B12D8gp120 (HIV-1); assay: direct-binding ELISA
[20] = target: CH505w160.C11D8gp120 (HIV-1); assay: direct-binding ELISA
[21] = target: CH505.M11D8gp120/293F; assay: direct-binding ELISA
[22] = target: CH505w136.B29D8gp120 (HIV-1); assay: direct-binding ELISA
[23] = target: CH505.M10D8gp120; assay: direct-binding ELISA
[24] = target: CH505w160.T2D8gp120 (HIV-1); assay: direct-binding ELISA
[25] = target: CH505w136.B20D8gp120 (HIV-1); assay: direct-binding ELISA
[26] = target: CH505w136.B27D8gp120 (HIV-1); assay: direct-binding ELISA
[27] = target: CH505w136.B2D8gp120/293F (HIV-1); assay: direct-binding ELISA
[28] = target: CH505.TF mutant gp120 M20 (HIV-1); assay: direct-binding ELISA
[29] = target: CH505w136.B10D8gp120 (HIV-1); assay: direct-binding ELISA
[30] = target: CH505.TF mutant gp120 M6 (HIV-1); assay: direct-binding ELISA
[31] = target: CH505.M5D8gp120293F; assay: direct-binding ELISA
[32] = target: CH505w160.C4D8gp120 (HIV-1); assay: direct-binding ELISA
[33] = target: CH505w136.B36D8gp120 (HIV-1); assay: direct-binding ELISA
[34] = target: CH505_w137V209C12.D11gp120 (HIV-1); assay: direct-binding ELISA
[35] = target: CH505.M9D8gp120/293F; assay: direct-binding ELISA
[36] = target: CH505w160.C14D8gp120 (HIV-1); assay: direct-binding ELISA
[37] = target: CH505w160.D5D8gp120/293F (HIV-1); assay: direct-binding ELISA
[38] = target: CH505w136.B5D8gp120 (HIV-1); assay: direct-binding ELISA
[39] = target: CH505w160.C2D8gp120 (HIV-1); assay: direct-binding ELISA
[40] = target: CH505w160.D1D8gp120 (HIV-1); assay: direct-binding ELISA
[41] = target: Histones; assay: AtheNA, Ab 12.5 ug/ml
[42] = target: Jo-1 (UniProt P12081); assay: AtheNA, Ab 12.5 ug/ml
[43] = target: Sm (Smith antigen); assay: AtheNA, Ab 12.5 ug/ml
[44] = target: Centromere B (UniProt P07199); assay: AtheNA, Ab 12.5 ug/ml
[45] = target: Scl-70 (UniProt P11387); assay: AtheNA, Ab 12.5 ug/ml
[46] = target: SSA; assay: AtheNA, Ab 12.5 ug/ml
[47] = target: RNP (ribonucleoprotein); assay: AtheNA, Ab 12.5 ug/ml
[48] = target: SSB (UniProt P05455); assay: AtheNA, Ab 12.5 ug/ml
SSB, sequence (P05455 whole entry): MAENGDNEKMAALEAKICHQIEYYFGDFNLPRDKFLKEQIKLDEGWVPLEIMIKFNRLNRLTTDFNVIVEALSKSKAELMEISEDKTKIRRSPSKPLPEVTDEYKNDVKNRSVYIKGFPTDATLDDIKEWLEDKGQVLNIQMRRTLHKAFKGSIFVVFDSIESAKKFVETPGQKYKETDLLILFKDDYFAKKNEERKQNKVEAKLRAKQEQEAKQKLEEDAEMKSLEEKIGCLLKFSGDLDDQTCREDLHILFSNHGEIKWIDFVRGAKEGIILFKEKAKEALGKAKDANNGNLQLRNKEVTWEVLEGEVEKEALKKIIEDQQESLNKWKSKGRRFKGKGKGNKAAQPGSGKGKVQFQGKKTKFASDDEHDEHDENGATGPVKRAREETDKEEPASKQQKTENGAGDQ

Jo-1, sequence (P12081 whole entry): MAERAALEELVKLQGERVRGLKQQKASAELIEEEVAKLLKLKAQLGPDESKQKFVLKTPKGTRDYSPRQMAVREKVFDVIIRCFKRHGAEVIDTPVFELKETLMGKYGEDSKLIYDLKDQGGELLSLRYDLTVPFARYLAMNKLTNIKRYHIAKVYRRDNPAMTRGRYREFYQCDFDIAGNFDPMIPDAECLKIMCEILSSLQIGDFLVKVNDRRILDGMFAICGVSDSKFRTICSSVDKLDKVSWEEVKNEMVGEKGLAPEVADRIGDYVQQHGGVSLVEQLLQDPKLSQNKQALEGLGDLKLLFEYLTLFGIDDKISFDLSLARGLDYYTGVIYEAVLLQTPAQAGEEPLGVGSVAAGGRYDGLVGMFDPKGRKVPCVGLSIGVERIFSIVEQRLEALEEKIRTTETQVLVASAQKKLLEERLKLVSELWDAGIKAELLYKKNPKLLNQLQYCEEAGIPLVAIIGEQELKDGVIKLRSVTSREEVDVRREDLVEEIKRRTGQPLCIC
Centromere B, sequence (P07199 whole entry): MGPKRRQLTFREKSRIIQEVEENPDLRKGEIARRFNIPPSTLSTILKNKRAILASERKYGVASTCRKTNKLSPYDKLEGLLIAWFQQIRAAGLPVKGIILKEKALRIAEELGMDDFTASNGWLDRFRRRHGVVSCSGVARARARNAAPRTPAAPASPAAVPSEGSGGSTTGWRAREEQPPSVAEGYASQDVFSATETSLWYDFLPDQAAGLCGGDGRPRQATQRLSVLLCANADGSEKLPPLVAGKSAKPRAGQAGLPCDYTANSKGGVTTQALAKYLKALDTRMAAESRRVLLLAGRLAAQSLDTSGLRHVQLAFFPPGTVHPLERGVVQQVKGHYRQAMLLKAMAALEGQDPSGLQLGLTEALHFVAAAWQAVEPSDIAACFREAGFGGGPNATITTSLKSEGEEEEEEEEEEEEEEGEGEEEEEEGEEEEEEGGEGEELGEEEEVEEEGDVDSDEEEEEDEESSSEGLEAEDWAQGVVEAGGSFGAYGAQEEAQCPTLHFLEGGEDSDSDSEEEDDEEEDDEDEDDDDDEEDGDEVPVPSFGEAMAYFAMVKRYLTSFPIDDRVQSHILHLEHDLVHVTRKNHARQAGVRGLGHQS
Scl-70, sequence (P11387 whole entry): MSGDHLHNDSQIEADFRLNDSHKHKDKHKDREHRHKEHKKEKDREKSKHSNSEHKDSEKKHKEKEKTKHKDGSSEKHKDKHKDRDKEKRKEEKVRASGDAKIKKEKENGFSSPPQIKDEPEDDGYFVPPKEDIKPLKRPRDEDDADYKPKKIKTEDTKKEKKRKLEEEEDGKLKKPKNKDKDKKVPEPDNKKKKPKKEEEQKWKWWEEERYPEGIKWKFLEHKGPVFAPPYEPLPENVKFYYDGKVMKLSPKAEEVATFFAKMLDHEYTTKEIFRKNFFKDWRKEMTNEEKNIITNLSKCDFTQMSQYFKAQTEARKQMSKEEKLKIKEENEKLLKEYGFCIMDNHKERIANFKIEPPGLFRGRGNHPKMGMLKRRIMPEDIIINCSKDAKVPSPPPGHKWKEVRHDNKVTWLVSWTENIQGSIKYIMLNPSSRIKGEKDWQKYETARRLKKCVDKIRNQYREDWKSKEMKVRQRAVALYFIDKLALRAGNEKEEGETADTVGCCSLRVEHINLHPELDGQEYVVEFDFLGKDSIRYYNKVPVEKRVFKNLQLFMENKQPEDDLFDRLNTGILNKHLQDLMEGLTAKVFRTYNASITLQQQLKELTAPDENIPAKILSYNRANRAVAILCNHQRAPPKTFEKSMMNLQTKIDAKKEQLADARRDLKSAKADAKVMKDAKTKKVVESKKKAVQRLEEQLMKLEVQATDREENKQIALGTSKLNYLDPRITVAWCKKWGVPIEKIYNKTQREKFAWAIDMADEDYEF

CH106 (antibody)
LogAUC [1]: 11.9 | LogAUC [2]: 11.8 | LogAUC [3]: 11.2 | LogAUC [4]: 7.25 | IC50 [5]: 2.5 µg/mL | IC50 [6]: 2.3 µg/mL | LogAUC [7]: 11.8 | LogAUC [8]: 10.2 | LogAUC [9]: 12.5 | LogAUC [10]: 13.3 | LogAUC [11]: 11 | LogAUC [12]: 11.7 | LogAUC [13]: 12.3 | LogAUC [14]: 12.2 | LogAUC [15]: 11.5 | LogAUC [16]: 12.6 | LogAUC [17]: 12.2 | LogAUC [18]: 7.6 | LogAUC [19]: 11.9 | LogAUC [20]: 8.15 | LogAUC [21]: 12.8 | LogAUC [22]: 12 | LogAUC [23]: 11.8 | LogAUC [24]: 6.16 | LogAUC [25]: 12.1 | LogAUC [26]: 11.2 | LogAUC [27]: 12.7 | LogAUC [28]: 10.7 | LogAUC [29]: 8.97 | LogAUC [30]: 12.6 | LogAUC [31]: 8.37 | LogAUC [32]: 6.8 | LogAUC [33]: 13.1 | LogAUC [34]: 12.2 | LogAUC [35]: 11 | LogAUC [36]: 6.94 | LogAUC [37]: 5.64 | LogAUC [38]: 10.9 | LogAUC [39]: 9.29 | LogAUC [40]: 7.06 | AtheNA signal (relative luminescence units) [41]: 2 | AtheNA signal (relative luminescence units) [42]: 3 | AtheNA signal (relative luminescence units) [43]: 4 | AtheNA signal (relative luminescence units) [44]: 2 | AtheNA signal (relative luminescence units) [45]: 3 | AtheNA signal (relative luminescence units) [46]: 11 | AtheNA signal (relative luminescence units) [47]: 2 | AtheNA signal (relative luminescence units) [48]: 5
